# B1: human phosphorylase kinase β subunit (PHKB), phosphorylated (natural protein, UniProt Q93100 1-1093, looked up)
# chain: MAGAAGLTAEVSWKVLERRARTKRSGSVYEPLKSINLPRPDNETLWDKLDHYYRIVKSTLLLYQSPTTGLFPTKTCGGDQKAKIQDSLYCAAGAWALALAYRRIDDDKGRTHELEHSAIKCMRGILYCYMRQADKVQQFKQDPRPTTCLHSVFNVHTGDELLSYEEYGHLQINAVSLYLLYLVEMISSGLQIIYNTDEVSFIQNLVFCVERVYRVPDFGVWERGSKYNNGSTELHSSSVGLAKAALEAINGFNLFGNQGCSWSVIFVDLDAHNRNRQTLCSLLPRESRSHNTDAALLPCISYPAFALDDEVLFSQTLDKVVRKLKGKYGFKRFLRDGYRTSLEDPNRCYYKPAEIKLFDGIECEFPIFFLYMMIDGVFRGNPKQVQEYQDLLTPVLHHTTEGYPVVPKYYYVPADFVEYEKNNPGSQKRFPSNCGRDGKLFLWGQALYIIAKLLADELISPKDIDPVQRYVPLKDQRNVSMRFSNQGPLENDLVVHVALIAESQRLQVFLNTYGIQTQTPQQVEPIQIWPQQELVKAYLQLGINEKLGLSGRPDRPIGCLGTSKIYRILGKTVVCYPIIFDLSDFYMSQDVFLLIDDIKNALQFIKQYWKMHGRPLFLVLIREDNIRGSRFNPILDMLAALKKGIIGGVKVHVDRLQTLISGAVVEQLDFLRISDTEELPEFKSFEELEPPKHSKVKRQSSTPSAPELGQQPDVNISEWKDKPTHEILQKLNDCSCLASQAILLGILLKREGPNFITKEGTVSDHIERVYRRAGSQKLWLAVRYGAAFTQKFSSSIAPHITTFLVHGKQVTLGAFGHEEEVISNPLSPRVIQNIIYYKCNTHDEREAVIQQELVIHIGWIISNNPELFSGMLKIRIGWIIHAMEYELQIRGGDKPALDLYQLSPSEVKQLLLDILQPQQNGRCWLNRRQIDGSLNRTPTGFYDRVWQILERTPNGIIVAGKHLPQQPTLSDMTMYEMNFSLLVEDTLGNIDQPQYRQIVVELLMVVSIVLERNPELEFQDKVDLDRLVKEAFNEFQKDQSRLKEIEKQDDMTSFYNTPPLGKRGTCSYLTKAVMNLLLEGEVKPNNDDPCLIS
# modifications: phosphorylated by PKAc; phosphoserine at Ser12, Ser27 and Ser701
# Target: the molecule itself
# Test: cryo-EM structure
protein,measurement,value
B1,binding result,binds

# From publication PMC11950179 (Nature Communications, 2025)
